Reference: PMC4982613
pKd: −log10 of the molar value.

Key:
Experiment in all cases: EMSA
[1] = target: NEIL1 DA S207A;S306A (human) (UniProt Q96FI4); details: tetrahydrofuran (abasic site analog) at position 14 of strand 1 (N), opposite C; EMSA: 10 pM 32P-DNA, 0-600 nM enzyme, 10% native PAGE, 2 h at 10 mA; binding buffer, salt, pH and temperature not stated; one-site specific binding fit (Prism …)
[2] = target: NEIL1 DE S207E;S306E (human) (UniProt Q96FI4); details: tetrahydrofuran (abasic site analog) at position 14 of strand 1 (N), opposite C; EMSA: 10 pM 32P-DNA, 0-600 nM enzyme, 10% native PAGE, 2 h at 10 mA; binding buffer, salt, pH and temperature not stated; one-site specific binding fit (Prism …)
Chain of NEIL1 DE S207E;S306E (human) (Q96FI4 whole entry S207E/S306E): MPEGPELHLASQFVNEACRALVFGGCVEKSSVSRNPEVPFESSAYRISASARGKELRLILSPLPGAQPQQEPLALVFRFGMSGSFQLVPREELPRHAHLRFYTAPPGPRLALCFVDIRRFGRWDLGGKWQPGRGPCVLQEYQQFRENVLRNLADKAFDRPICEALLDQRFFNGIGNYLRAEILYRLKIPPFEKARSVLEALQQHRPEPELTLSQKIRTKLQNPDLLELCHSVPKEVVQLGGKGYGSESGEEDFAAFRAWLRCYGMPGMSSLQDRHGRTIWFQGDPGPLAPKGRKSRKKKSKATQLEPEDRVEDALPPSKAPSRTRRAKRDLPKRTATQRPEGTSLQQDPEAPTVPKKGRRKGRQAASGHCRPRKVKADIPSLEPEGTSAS

[3] = target: NEIL1 S207A S207A (human) (UniProt Q96FI4); details: multiple complexes (C1+C2+C3) quantified; tetrahydrofuran (abasic site analog) at position 14 of strand 1 (N), opposite C; EMSA: 10 pM 32P-DNA, 0-600 nM enzyme, 10% native PAGE, 2 h at 10 mA; binding buffer, salt, pH and temperature not stated; one-site specific binding fit (Prism …)
Chain of NEIL1 S207A S207A (human) (Q96FI4 whole entry S207A): as the sequence (Q96FI4 whole entry S207E/S306E) above, with E207A, E306S counted along it

[4] = target: NEIL1 S207E S207E (human) (UniProt Q96FI4); details: tetrahydrofuran (abasic site analog) at position 14 of strand 1 (N), opposite C; EMSA: 10 pM 32P-DNA, 0-600 nM enzyme, 10% native PAGE, 2 h at 10 mA; binding buffer, salt, pH and temperature not stated; one-site specific binding fit (Prism …)
Chain of NEIL1 S207E S207E (human) (Q96FI4 whole entry S207E): as the sequence (Q96FI4 whole entry S207E/S306E) above, with E306S counted along it

[5] = target: NEIL1 S306A S306A (human) (UniProt Q96FI4); details: upper bands may lower Kd; tetrahydrofuran (abasic site analog) at position 14 of strand 1 (N), opposite C; EMSA: 10 pM 32P-DNA, 0-600 nM enzyme, 10% native PAGE, 2 h at 10 mA; binding buffer, salt, pH and temperature not stated; one-site specific binding fit (Prism …)
Chain of NEIL1 S306A S306A (human) (Q96FI4 whole entry S306A): as the sequence (Q96FI4 whole entry S207E/S306E) above, with E207S, E306A counted along it

[6] = target: NEIL1 S306E S306E (human) (UniProt Q96FI4); details: tetrahydrofuran (abasic site analog) at position 14 of strand 1 (N), opposite C; EMSA: 10 pM 32P-DNA, 0-600 nM enzyme, 10% native PAGE, 2 h at 10 mA; binding buffer, salt, pH and temperature not stated; one-site specific binding fit (Prism …)
Chain of NEIL1 S306E S306E (human) (Q96FI4 whole entry S306E): as the sequence (Q96FI4 whole entry S207E/S306E) above, with E207S counted along it

NEIL1 S61A S61A (human) = NEIL1 S61A S61A (human) (UniProt Q96FI4); details: tetrahydrofuran (abasic site analog) at position 14 of strand 1 (N), opposite C; EMSA: 10 pM 32P-DNA, 0-600 nM enzyme, 10% native PAGE, 2 h at 10 mA; binding buffer, salt, pH and temperature not stated; one-site specific binding fit (Prism …)
Chain of NEIL1 S61A S61A (human) (Q96FI4 whole entry S61A): as the sequence (Q96FI4 whole entry S207E/S306E) above, with S61A, E207S, E306S counted along it

NEIL1 S61E S61E (human) = NEIL1 S61E S61E (human) (UniProt Q96FI4); details: tetrahydrofuran (abasic site analog) at position 14 of strand 1 (N), opposite C; EMSA: 10 pM 32P-DNA, 0-600 nM enzyme, 10% native PAGE, 2 h at 10 mA; binding buffer, salt, pH and temperature not stated; one-site specific binding fit (Prism …)
Chain of NEIL1 S61E S61E (human) (Q96FI4 whole entry S61E): as the sequence (Q96FI4 whole entry S207E/S306E) above, with S61E, E207S, E306S counted along it

[7] = target: NEIL1 TA S207A;S306A;S61A (human) (UniProt Q96FI4); details: tetrahydrofuran (abasic site analog) at position 14 of strand 1 (N), opposite C; EMSA: 10 pM 32P-DNA, 0-600 nM enzyme, 10% native PAGE, 2 h at 10 mA; binding buffer, salt, pH and temperature not stated; one-site specific binding fit (Prism …)
Chain of NEIL1 TA S207A;S306A;S61A (human) (Q96FI4 whole entry S61A/S207A/S306A): as the sequence (Q96FI4 whole entry S207E/S306E) above, with S61A, E207A, E306A counted along it

[8] = target: NEIL1 TE S207E;S306E;S61E (human) (UniProt Q96FI4); details: upper bands may lower Kd; tetrahydrofuran (abasic site analog) at position 14 of strand 1 (N), opposite C; EMSA: 10 pM 32P-DNA, 0-600 nM enzyme, 10% native PAGE, 2 h at 10 mA; binding buffer, salt, pH and temperature not stated; one-site specific binding fit (Prism …)
Chain of NEIL1 TE S207E;S306E;S61E (human) (Q96FI4 whole entry S61E/S207E/S306E): as the sequence (Q96FI4 whole entry S207E/S306E) above, with S61E counted along it

NEIL1 WT (human) = NEIL1 WT (human) (UniProt Q96FI4); details: tetrahydrofuran (abasic site analog) at position 14 of strand 1 (N), opposite C; EMSA: 10 pM 32P-DNA, 0-600 nM enzyme, 10% native PAGE, 2 h at 10 mA; binding buffer, salt, pH and temperature not stated; one-site specific binding fit (Prism …)
Chain of NEIL1 WT (human) (Q96FI4 whole entry): as the sequence (Q96FI4 whole entry S207E/S306E) above, with E207S, E306S counted along it

Chain of NEIL1 DA S207A;S306A (human) (Q96FI4 whole entry S207A/S306A): as the sequence (Q96FI4 whole entry S207E/S306E) above, with E207A, E306A counted along it

TGTCAATAGCAAGNGGAGAAGTCAATCGTGAGTCT / AGACTCACGATTGACTTCTCCCCTTGCTATTGACA [35-mer Furan:C duplex]
pKd [1]: 7.97 | pKd [2]: 7.82 | pKd [3]: 8.49 | pKd [4]: 8.35 | pKd [5]: 8.64 | pKd [6]: 8.11 | pKd (NEIL1 S61A S61A (human)): 7.79 | pKd (NEIL1 S61E S61E (human)): 7.71 | pKd [7]: 7.88 | pKd [8]: 8.89 | pKd (NEIL1 WT (human)): 7.64
